# Source: patent US20260109742A1 (LUMEN BIOSCIENCE, published 2026)
# B1: PP1895 (S3B-C8_smAKAP-C70S_C78S_S3B-C8_H6) (bispecific antibody)
# chain: MSGQVQLVESGGGLVQPGGSLRLSCAASGSIENIERMHWYRQAPGKQRELVAVIDSGGTTRYADSVKGRFTISRDNAKNTVYLQMNSLKPEDTAVYYCAAVWLTNAESTQEYWGQGTQVTVSSGGTVILEYAHRLSQDILSDALQQWASSGGGGSGGGGGQVQLVESGGGLVQPGGSLRLSCAASGSIENIERMHWYRQAPGKQRELVAVIDSGGTTRYADSVKGRFTISRDNAKNTVYLQMNSLKPEDTAVYYCAAVWLTNAESTQEYWGQGTQVTVSSGGSHHHHHH
# B2: PP2455 (myctag-S3b-C8-smAKAP_R63E_C70S_C78G-S3b-C8-H6) (bispecific antibody)
# chain: MEQKLISEEDLSGGQVQLVESGGGLVQPGGSLRLSCAASGSIENIERMHWYRQAPGKQRELVAVIDSGGTTRYADSVKGRFTISRDNAKNTVYLQMNSLKPEDTAVYYCAAVWLTNAESTQEYWGQGTQVTVSSGGGGSTVILEYAHELSQDILSDALQQWAGGGSGSQVQLVESGGGLVQPGGSLRLSCAASGSIENIERMHWYRQAPGKQRELVAVIDSGGTTRYADSVKGRFTISRDNAKNTVYLQMNSLKPEDTAVYYCAAVWLTNAESTQEYWGQGTQVTVSSHHHHHH
# notes: also called R63E mutant
# B3: PP2456 (myctag-S3b-C8-smAKAP_R63E_C70S_W76S_C78G-S3b-C8-H6) (bispecific antibody)
# chain: MEQKLISEEDLSGGQVQLVESGGGLVQPGGSLRLSCAASGSIENIERMHWYRQAPGKQRELVAVIDSGGTTRYADSVKGRFTISRDNAKNTVYLQMNSLKPEDTAVYYCAAVWLTNAESTQEYWGQGTQVTVSSGGGGSTVILEYAHELSQDILSDALQQSAGGGSGSQVQLVESGGGLVQPGGSLRLSCAASGSIENIERMHWYRQAPGKQRELVAVIDSGGTTRYADSVKGRFTISRDNAKNTVYLQMNSLKPEDTAVYYCAAVWLTNAESTQEYWGQGTQVTVSSHHHHHH
# notes: also called pp 2456 (W76S)
# How the values were obtained:
# [1] = target: PP1113 (MBP-5HVZ-PAPA-RN-29-H6); assay: hydrabody complex of smAKAP-linked VHH dimer with 5HVZ homodimer
# Description: Briefly, to Assess in vitro protease stability of clones, purified protein samples were prepared at 0.2 mg/mL in protease digestion buffer (20 mM Bis-Tris, 150 mM NaCl, 3 mM CaCl2 pH 6.0). The protease enzymes trypsin and chymotrypsin were diluted from 1 mg/mL stalk concentration to 0.2 mg/mL in protease digest buffer. Both the protein and enzyme were diluted 1:10 in protease digestion buffer. The digestion reactions were conducted by mixing 30 μL of diluted protein and 30 μL of diluted protease. The reactions were mixed by centrifugation for 30 seconds at high speed and incubated at 37° C. for 60 minutes with shaking at 900 rpm in an Eppendorf ThermoMixer. Reactions were quenched with an equal volume of stop buffer containing 2 mM PMSF and 2× Pierce protease inhibitor minitablet in PBS. The final concentration of each VHH homodimer after protease neutralization was 0.1 mg/mL. Samples were kept on ice for ELISA assay.
# Digested protein samples were analyzed for binding activity via ELISA. High-binding ELISA plates were coated with 100 μl/well of 1 μg/mL SARS-COV-2 RBD in CBC binding buffer and incubated overnight at 4° C. Plates were washed 3× with PBS supplemented with 0.05% Tween-20 (PBS-tw), then blocked for 1 hour with 300 μl/well of blocking buffer (PBS-tw supplemented with 5% Non-fat dried milk). […] Absorbance was read at 450 nm with a Spectra Max M5 plate reader.
# [2] = target: PP1113 (MBP-5HVZ-PAPA-RN-29-H6); assay: analytical SEC, 5HVZ dimer with smAKAP clone at 1:2 molar ratio
Binder,binding result [1],binding result [2]
B1,binds,
B2,,binds
B3,,binds
